Experimental findings from publication doi:10.1101/2021.06.17.448874 are described below.

The target in test [1] is subtilisin-digested microtubules (lacking E-hooks) (porcine) (UniProt P02550). Put plainly: co-sedimentation.
Test [2] deals with microtubules polymerised from porcine brain tubulin, taxol-stabilised (porcine) (UniProt P02550). Put plainly: co-sedimentation.

Several values for one entry are separate records, joined by “and”; a condition that tells them apart may be missing. Equal entries are not always repeated.

Regarding “KLP-18 C-stalk (C-terminal half of the KLP-18 stalk) (domain or fragment)”, the shift to pellet (%) was 26.7% in test [1]; 52.7% and 50.8% in test [2].
Consider “MBP-MESP-1 (meiotic spindle 1) (natural protein)”, for which, in test [2], the shift to pellet (%) was 56.1% and 41.6%.
